Measured values as given in the supplement of paper PMC10567573.

B1: ACBD3 (parent)
chain: YVASHKIEKEEQEKKRKEEEERRR

Variants of: B1
Assay: protein stability index of a GFP-peptide fusion (GPS, HEK-293T) (PSI 1-6); higher = more stable
Settings: c terminus: a fixed tail appended
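Further: lentivirally expressed fusions sorted by FACS into six bins by GFP to DsRed ratio, PSI derived from sequencing read proportions per bin multiplied by bin number.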

Protein stability index, by site and new letter:
Y1: I 5, K 5.87, L 5.56, M 5.6, N 5.77, P 5.43, Q 5.5, R 5.49, S 5.5, T 5.43, V 5.68, W 5.65
V2: A 4.73, C 4.4, D 5.36, E 5.85, F 5.16, G 5.36, H 4.14, I 4.51, K 5.05, L 5.22, M 5.36, N 5.04, P 5.11, Q 4.57, R 5.49, S 5.25, T 5.24, W 4.93, Y 4.75
A3: C 2.5, D 3.91, E 2.84, F 3.72, G 2.33, H 2.15, I 2.61, K 2.95, L 3.09, M 3.14, N 2.39, P 1.47, Q 3.36, R 2.01, S 3.04, T 2.98, V 3.36, W 2.85, Y 2.13
S4: A 2.9, C 2.81, D 3.95, E 3.05, F 2.07, G 2.39, H 2.62, K 3.67, L 2.67, M 2.1, N 2.16, P 3.8, Q 3.14, R 2.57, T 2.74, V 3.28, W 1.49, Y 2.49
H5: A 3.1, D 4.25, E 4.24, F 2.24, G 1.92, I 3.02, K 2.61, L 2.82, M 2.5, N 2.4, P 3.08, Q 2.7, R 2.46, S 3.07, T 3, V 3.05, W 2, Y 2.42
K6: C 2.98, D 4.14, E 3.67, F 2.79, G 2.96, H 3.21, I 2.66, L 2.66, M 3.21, N 2.7, P 2.67, Q 3.76, R 2.74, S 2.77, T 2.88, V 2.95, Y 2.12
I7: A 3.29, C 3.86, D 3.86, E 2.89, F 2.53, G 3.13, H 3.1, K 2.89, L 2.37, M 2.56, P 3.35, Q 2.25, R 2.67, S 3.22, T 3.09, V 2.43, W 1.81, Y 2.36
E8: A 2.23, C 2.42, D 2.74, F 1.12, G 2.49, H 1.96, I 2.16, K 2.57, L 2.33, M 1.75, N 2.36, P 2.29, Q 2.14, R 2.81, S 2.83, T 2.13, V 2.1, W 2.03, Y 2.32
K9: A 3.03, C 2.5, D 3.61, E 3.42, F 2.72, G 2.5, I 2.29, L 3.07, M 2.8, N 3.19, Q 3.22, R 1.84, S 2.78, T 2.42, V 2, W 1.86, Y 2.28
E10: A 1.55, C 2.19, D 2.42, F 1.76, G 1.9, H 1.66, I 2.1, K 2.46, L 2.95, M 2.42, N 2.79, P 1.78, Q 1.88, R 1.87, S 3.11, T 2.08, V 2.46, Y 2.08
E11: A 3.79, C 2.55, D 2.75, F 3.47, G 2.34, H 3.12, I 2.24, K 1.71, L 2.13, M 2.2, P 1.76, Q 2.79, R 1.93, S 2.57, T 4.28, V 1.98, W 2.67, Y 2.37
Q12: A 3.33, C 2.92, D 3.76, E 3.63, F 1.96, G 2.88, H 2.27, I 3.33, K 2.12, L 2.78, N 2.18, P 2.31, R 2.26, S 1.82, T 2.52, V 2.02, W 1.93, Y 2.67
E13: C 2.66, D 2.9, F 2.39, G 2.15, H 2.25, I 2.22, K 1.73, L 2.27, M 2.04, N 2.52, P 2.02, Q 2, S 3.36, T 2.33, V 2.93, W 2.81, Y 2.41
K14: C 2.67, D 3.27, G 2.79, H 2.22, I 3.21, L 3, M 2.62, N 2.99, P 2.49, Q 2.95, S 2.74, T 2.44, V 3.09, W 2.69, Y 2.27
K15: A 3.27, C 2.09, D 2.73, E 3.07, F 2.06, G 2.71, H 3.06, I 2.39, L 2.2, M 2.6, N 2.62, P 2.4, Q 3.15, R 2.69, S 2.79, V 2.74, W 3.36, Y 2.16
R16: A 3.02, C 2.67, D 2.76, E 3.75, F 2.34, G 2.88, H 2.4, I 2.69, K 2.92, L 3, M 3.23, N 2.63, P 2.6, Q 2.94, S 2.65, T 3.41, V 2.24, W 2.27, Y 2.74
K17: A 2.88, C 2.41, D 2.77, E 2.93, F 2.32, G 3.79, H 2.74, I 2.35, L 3.14, M 2.45, N 2.99, P 3.01, Q 2.07, R 3.32, S 3.09, T 2.35, V 2.9, W 1.84, Y 2.06
E18: A 3.07, C 2.12, D 2.38, H 1.6, I 2.42, K 2.05, L 2.16, M 2.46, N 1.85, P 2.25, Q 2.43, R 2.26, S 2.22, T 2.41, V 1.95, W 3.53, Y 1.94
E19: A 2.6, C 2.53, D 2.74, F 2.68, G 2.03, H 2.44, I 3.02, K 2.48, L 2.39, M 1.98, N 1.94, P 1.81, Q 2.61, R 2.25, S 2.54, T 2.57, V 2.59, W 2.19
